In EP4721767A1 (priority 2023, dated 2024):
Residue numbers refer to the chain shown, from its start. Where “and” joins values, the source holds several entries; their conditions need not be identical. Identical values can stand only once.

T1: Recombinant human B7-H3 extracellular domain protein (UniProtKB-Q5ZPR3, amino acids 1-461, C-His tag) (human) (UniProt Q5ZPR3)
T1 sequence (looked up): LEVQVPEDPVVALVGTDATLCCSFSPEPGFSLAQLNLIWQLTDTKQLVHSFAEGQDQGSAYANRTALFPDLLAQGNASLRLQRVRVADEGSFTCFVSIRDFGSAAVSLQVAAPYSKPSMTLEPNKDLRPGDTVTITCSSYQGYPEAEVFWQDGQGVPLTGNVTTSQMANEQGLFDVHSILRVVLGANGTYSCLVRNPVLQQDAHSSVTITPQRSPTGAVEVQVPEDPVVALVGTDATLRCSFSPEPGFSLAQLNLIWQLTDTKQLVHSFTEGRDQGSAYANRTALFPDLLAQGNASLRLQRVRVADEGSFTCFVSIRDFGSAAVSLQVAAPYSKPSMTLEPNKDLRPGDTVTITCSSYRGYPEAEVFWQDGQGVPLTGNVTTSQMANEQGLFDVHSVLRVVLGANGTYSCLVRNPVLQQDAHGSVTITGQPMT

T2: human B7-H3 naturally expressed on the surface of SKOV3 cells (human) (UniProt Q5ZPR3)
T2 sequence (looked up): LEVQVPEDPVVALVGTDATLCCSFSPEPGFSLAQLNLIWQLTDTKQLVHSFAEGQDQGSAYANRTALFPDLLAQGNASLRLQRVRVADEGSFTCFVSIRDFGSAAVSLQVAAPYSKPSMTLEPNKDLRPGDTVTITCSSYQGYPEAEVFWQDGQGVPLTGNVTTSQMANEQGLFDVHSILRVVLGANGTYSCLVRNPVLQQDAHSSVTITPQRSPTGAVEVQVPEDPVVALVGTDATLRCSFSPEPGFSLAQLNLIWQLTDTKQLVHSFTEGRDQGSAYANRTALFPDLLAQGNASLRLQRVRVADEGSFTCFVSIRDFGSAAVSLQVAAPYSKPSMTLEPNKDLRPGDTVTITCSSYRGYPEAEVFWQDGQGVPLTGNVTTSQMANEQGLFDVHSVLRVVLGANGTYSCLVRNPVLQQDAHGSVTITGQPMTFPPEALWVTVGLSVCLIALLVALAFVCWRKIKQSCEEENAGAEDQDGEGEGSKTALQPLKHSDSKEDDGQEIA

T3: Recombinant human B7-H3 extracellular domain protein (UniProtKB-Q5ZPR3, amino acids 1-461, C-His tag) (human, UniProt Q5ZPR3 29-461)
T3 construct: range 1-461; The printed range 1-461 starts at residue 1 and so covers the signal peptide; also called human B7-H3 ECD-His; recombinant human B7-H3 ECD protein; not shown: C-terminal His tag
T3 sequence (looked up): T1 sequence (looked up)

T4: human B7-H3 naturally expressed on the surface of SKOV3 cells (human, UniProt Q5ZPR3 29-534)
T4 construct: whole, on cells; also called surface antigen of SKOV3 cells; B7-H3 on the surface of SKOV3 cells
T4 sequence (looked up): T2 sequence (looked up)

B1: Control antibody hum30 (antibody, from another filing, V domains shown)
VH: QVQLVQSGAEVKKPGSSVKVSCKASGYTFTNYVMHWVRQAPGQGLEWMGYINPYNDDVKYNEKFKGRVTITADESTSTAYMELSSLRSEDTAVYYCARWGYYGSPLYYFDYWGQGTLVTVSS
VL: EIVLTQSPATLSLSPGERATLSCRASSRLIYMHWYQQKPGQAPRPLIYATSNLASGIPARFSGSGSGTDFTLTISSLEPEDFAVYYCQQWNSNPPTFGQGTKVEIK
B2: hz10B4 (antibody, V domains shown)
VH: EVQLVQSGAEVKKPGASVKVSCKASGYTFTEYIMHWVRQAPGQGLEWMGGINPASGGTTYNQKFKGRVTMTRDTSISTAYMELSRLRSEDTAVYYCARKGKDYFDWYFDVWGQGTTVTVSS
VL: DIQLTQSPSSLSASVGDRVTMTCSASSSVSYMHWYQQKPGKAPKLLIYDTSKLASGVPSRFSGSGSGTDFTLTISSLQPEDFATYYCQQWSSNPLTFGGGTKVEIK
notes: Humanized anti-B7-H3 antibody prepared by the method of CN114573695A; also called parent hz10B4; hz10B4-VH×hz10B4-VL
B3: hz10B4m2 (antibody, V domains shown)
VH: B2 VH
VL: B2 VL with S92A, N93S
notes: LCDR3 variant of hz10B4 (SSN→SAS); also called hz10B4-VH×hz10B4-Lm2-VL
B4: hz10B4m3 (antibody, V domains shown)
VH: B2 VH
VL: B2 VL with N93Q
notes: LCDR3 variant of hz10B4 (SSN→SSQ); also called hz10B4-VH×hz10B4-Lm3-VL
B5: hz10B4m4 (antibody, V domains shown)
VH: B2 VH
VL: B2 VL with N93G
notes: LCDR3 variant of hz10B4 (SSN→SSG); also called hz10B4-VH×hz10B4-Lm4-VL
B6: hz10B4m5 (antibody, V domains shown)
VH: B2 VH
VL: B2 VL with S92G, N93S
notes: LCDR3 variant of hz10B4 (SSN→SGS); also called hz10B4-VH×hz10B4-Lm5-VL
B7: hz10B4m1 (antibody, V domains shown)
VH: B2 VH
VL: B2 VL with N93A
notes: LCDR3 variant of hz10B4 (SSN→SSA); also called hz10B4-VH×hz10B4-Lm1-VL
B8: MGC018: MacroGenics ADC: anti-B7-H3 humanized IgG1 monoclonal antibody conjugated to Duocarmycin (DUBA) via a cleavable linker, average DAR 2.7 (conjugate, chains of the INN, looked up)
VH: EVQLVESGGGLVKPGGSLRLSCAASGFTFSSYGMSWVRQAPGKGLEWVATINSGGSNTYYPDSLKGRFTISRDNAKNSLYLQMNSLRAEDTAVYYCARHDGGAMDYWGQGTTVTVSS
VL: DIQMTQSPSSLSASVGDRVTITCRASESIYSYLAWYQQKPGKAPKLLVYNTKTLPEGVPSRFSGSGSGTDFTLTISSLQPEDFATYYCQHHYGTPPWTFGQGTRLEIK
modifications: duocarmycin (DUBA) payload, cleavable linker, DAR 2.7

Tests used:
[1] = system: HT29 human colon cancer cells; assay: Cell killing activity of camptothecins (CCK-8); assay type: cell-based; settings: HT29, killing 4 days; for EC50: Homo sapiens, HT-29, 96 h
Description: (§1) KB oral epithelial cancer cells (purchased from: ATCC) were cultured in DMEM medium supplemented with 10% FBS; NCI-N87 human gastric cancer cells (purchased from: ATCC) were cultured in RPMI1640 medium supplemented with 10% FBS; HT29 human colon cancer cells (purchased from: ATCC) were cultured in RPMI1640 medium supplemented with 10% FBS; and BxPC-3 human pancreatic adenocarcinoma cells (purchased from: ATCC) were cultured in RPMI1640 medium supplemented with 10% FBS.
(§2) Using corresponding media described above and in cell plates, the density of KB cells was adjusted to 2×10^4/mL; the density of NCI-N87 cells was adjusted to 5×10^4/mL; the density of HT29 cells was adjusted to 5×10^4/mL, and the cells were plated onto 96-well transparent flat bottom plates, at 100 µL/well, and cultured overnight; and the density of BxPC-3 cells was adjusted to 5×10^4/mL.
(§3) Samples to be detected were diluted to 20 µM with corresponding media, then 5-fold gradient dilution was performed, and 9 concentrations were obtained. A well having cells but with no any sample added was set as the well showing maximum cell growth; and a well having no cells was set as the well of medium background. The diluted samples were added into the cell plates, at 100 µL/well, which were then incubated in a CO2 incubator for 96 hours. After the incubation, CCK-8 (purchased from: DOJINDO LABORATORIES) prepared beforehand was added into the plates, at 20 µL/well, and after further 3 hours of incubation in the CO2 incubator, OD values at 450 nm were read on a microplate reader.
(§4) Data obtained was fitted to a four-parameter curve using software Prism7, and equation for calculating maximum killing is: maximum killing (%) = 1 - (OD450 value of the well showing maximum killing - OD450 value of the well of medium background) / (OD450 value of the well showing maximum cell growth - OD450 value of the cell of medium background) × 100%. Table 6. Results of comparative study on the activity of camptothecins

[2] = system: KB oral epithelial cancer cells; assay: Cell killing activity of camptothecins (CCK-8); assay type: cell-based; settings: killing 4 days; for EC50: 96 h
Description: as §1, §2, §3, §4

[3] = system: NCI-N87 human gastric cancer cells; assay: cells; assay type: cell-based; settings: NCI-N87, killing 4 days
[4] = system: BxPC-3 human pancreatic adenocarcinoma cells; assay: cells; assay type: cell-based; settings: BxPC-3, killing 4 days
[5] = target: T1, Recombinant human B7-H3 extracellular domain protein; assay: BLI (ForteBio Octet QKe), antibody on AHC probes, 60 nM antigen, 1:1 Langmuir fit
[6] = target: T2, human B7-H3 naturally expressed on the surface of SKOV3 cells (human); assay: flow cytometry (MFI) on SKOV3 cells naturally expressing human B7-H3
[7] = target: T3, Recombinant human B7-H3 extracellular …; assay: BLI (ForteBio Octet QKe), antibody on AHC probes, 60 nM antigen, 1:1 Langmuir fit
[8] = target: T4, human B7-H3 naturally expressed on the …; assay: flow cytometry (MFI) on SKOV3 cells naturally expressing human B7-H3
[9] = Phase I, advanced solid tumors, reported 2021; cited from earlier work

| Molecule | Kd [7] | koff [7] | kon [7] | EC50 [8] | other results |
| --- | --- | --- | --- | --- | --- |
| CC[C@@]1(O)C(=O)OCc2c1cc1n(c2=O)Cc2c-1nc1ccc(N)c3c1c2C(C)(C)CC3 [Compound 1] | – | – | – | – | Maximum Killing (%) [1]: 91.9%; EC50 [1]: 43.4 nM; EC50 [2]: 52.3 nM; Maximum Killing (%) [2]: 97.6%; EC50 ([3]; Homo sapiens, NCI-N87, 96 h): 21.9 nM |
| CC[C@@]1(O)C(=O)OCc2c1cc1n(c2=O)Cc2c-1nc1cc(F)c(C)c3c1c2[C@@H](NC(=O)CO)CC3 [Dxd, reference compound] | – | – | – | – | EC50 [1]: 133 nM; EC50 [2]: 138 nM; Maximum Killing (%) [4]: 93.1%; EC50 ([4]; Homo sapiens, BXPC-3, 96 h): 33.7 nM; Maximum Killing (%) [3]: 93.3% |
| CC[C@@]1(O)C(=O)OCc2c1cc1n(c2=O)Cc2c-1nc1ccc(N)c3c1c2CCC3 [MWC-1, reference compound] | – | – | – | – | Maximum Killing (%) [1]: 89% and 89.9%; EC50 [2]: 15.7 nM; Maximum Killing (%) [2]: 98.6%; Maximum Killing (%) [3]: 93.3% |
| B1 | – | – | – | – | Kd [5]: 0.344 nM; koff [5]: 0.000324 s⁻¹; kon [5]: 941000 M⁻¹ s⁻¹; EC50 [6]: 1.22 nM |
| B2 | 0.216 nM | 0.000143 s⁻¹ | 665000 M⁻¹ s⁻¹ | 1.58 nM | – |
| B3 | 0.381 nM | 0.000287 s⁻¹ | 755000 M⁻¹ s⁻¹ | 1.45 nM | – |
| B4 | 0.422 nM | 0.000281 s⁻¹ | 666000 M⁻¹ s⁻¹ | 1.59 nM | – |
| B5 | 0.831 nM | 0.00042 s⁻¹ | 505000 M⁻¹ s⁻¹ | 16.9 nM | – |
| B6 | 0.568 nM | 0.000336 s⁻¹ | 592000 M⁻¹ s⁻¹ | 2.25 nM | – |
| B7 | 0.352 nM | 0.000225 s⁻¹ | 639000 M⁻¹ s⁻¹ | 1.89 nM | – |
| B8 | – | – | – | – | Grade 3 and higher treatment-related adverse events (TRAEs) [9]: 50%; patients with Grade 3 and higher treatment-related adverse events (TRAEs) [9]: 43 patients; severe TRAE neutropenia [9]: 22.1%; severe TRAE thrombocytopenia [9]: 7% |
